The values below are quoted from earlier work in patent US20240082365A1, “MULTIDISCIPLINARY TREATMENT OF CHRONIC DISEASE USING REGENERATIVE CELLS AND TECHNOLOGIES” (priority 2022, published 2024).

The test system of series [1] is metastatic renal cell carcinoma (RCC) and metastatic melanoma. As to conditions: high-dose, e.g. IV bolus 600,000 IU/kg every 8 hours for up to 14 doses.
Where [2] appears, read: subcutaneous, one-compartment model.

As to aldesleukin, the antitumor activity entry in series [1] was “demonstrated antitumor activity”. Further, the “time at which peak plasma levels are reached” value (after SC administration) is 2 to 6 h. Further, under setting [2], the absorption half-life was 0.75 h and the elimination half-life is 3 to 5 h.
